Experimental data published in article doi:10.1101/2025.02.21.639491 (bioRxiv, 2025).

Target: the molecule itself
Assay: mass photometry

B1: wild-type mouse PADI6 (peptidyl arginine deiminase 6) (natural protein, UniProt Q8K3V4 1-682, looked up)
chain: MSFQNSLSLSLVNPTHALCMVGMEITLDISKCAPDKCKSFTIRGSPRILIHISSSVIAGKEDTVVWRSMNHPTVALVRMVAPSPTVDEDKVLVSYFCPDQEVPTATAVLFLTGIEISLEADIYRDGQLDMPSDKQAKKKWMWGMNGWGAILLVNCSPNAVGQPDEQSFQEGPREIQNLSQMNVTVEGPTSILQNYQLILHTSEEEAKKTRVYWSQRGSSAYELVVGPNKPVYLLPTFENRRKEAFYVEATEFPSPSFSGLISLSLSLVEKAHDECIPEIPLYKDTVMFRVAPYIFMPSTQMPLEVYLCRELQLQGFVDSVTKLSEKSKVQVVKVYEDPNRQSKWLQDEMAFCYTQAPHKTVSLILDTPRVSKLEDFPMKYTLTPGSGYLIRQTEDHRVASLDSIGNLMVSPPVKAQGKDYPLGRVLIGGSFYPSSEGRDMNKGLREFVYAQQVQAPVELFSDWLMTGHMDQFMCFVPTNDKNNDQKDFRLLLASPSACFELFEQKQKEGYGNVTLFEDIGAEQLLSNGRESKTISQILADKSFREQNTYVEKCISLNRTLLKTELGLEDKDIILIPQLFCLEQLTNVPSNQQSTKLFARPYFPDMLQIIVLGKNLGIPKPFGPKINGTCCLEEKVCGLLEPLGLKCTFIDDFDCYLANIGDVCASAIINRVPFAFKWWKMTP
stoichiometry N: 2

B2: mouse PADI6 C663A (natural protein, UniProt Q8K3V4 1-682, looked up)
chain: MSFQNSLSLSLVNPTHALCMVGMEITLDISKCAPDKCKSFTIRGSPRILIHISSSVIAGKEDTVVWRSMNHPTVALVRMVAPSPTVDEDKVLVSYFCPDQEVPTATAVLFLTGIEISLEADIYRDGQLDMPSDKQAKKKWMWGMNGWGAILLVNCSPNAVGQPDEQSFQEGPREIQNLSQMNVTVEGPTSILQNYQLILHTSEEEAKKTRVYWSQRGSSAYELVVGPNKPVYLLPTFENRRKEAFYVEATEFPSPSFSGLISLSLSLVEKAHDECIPEIPLYKDTVMFRVAPYIFMPSTQMPLEVYLCRELQLQGFVDSVTKLSEKSKVQVVKVYEDPNRQSKWLQDEMAFCYTQAPHKTVSLILDTPRVSKLEDFPMKYTLTPGSGYLIRQTEDHRVASLDSIGNLMVSPPVKAQGKDYPLGRVLIGGSFYPSSEGRDMNKGLREFVYAQQVQAPVELFSDWLMTGHMDQFMCFVPTNDKNNDQKDFRLLLASPSACFELFEQKQKEGYGNVTLFEDIGAEQLLSNGRESKTISQILADKSFREQNTYVEKCISLNRTLLKTELGLEDKDIILIPQLFCLEQLTNVPSNQQSTKLFARPYFPDMLQIIVLGKNLGIPKPFGPKINGTCCLEEKVCGLLEPLGLKCTFIDDFDCYLANIGDVAASAIINRVPFAFKWWKMTP
stoichiometry N: 2
